From patent US20180312579A1 (Genentech, published 2018)

Assays:
[1] = molecular target: T1, FLAG-tagged human RSPO3 (Genentech) (human, UniProt Q9BXY4 22-272); test: competitive binding ELISA: antibody titrated against LGR4-Fc (LGR4-ECD) binding to plate-coated hRSPO3; signal = bound LGR4-Fc, OD(450/630)/OD no antibody
T1 construct: also called hRSPO3; RSPO3 coated plates; not shown: FLAG tag
T1 sequence: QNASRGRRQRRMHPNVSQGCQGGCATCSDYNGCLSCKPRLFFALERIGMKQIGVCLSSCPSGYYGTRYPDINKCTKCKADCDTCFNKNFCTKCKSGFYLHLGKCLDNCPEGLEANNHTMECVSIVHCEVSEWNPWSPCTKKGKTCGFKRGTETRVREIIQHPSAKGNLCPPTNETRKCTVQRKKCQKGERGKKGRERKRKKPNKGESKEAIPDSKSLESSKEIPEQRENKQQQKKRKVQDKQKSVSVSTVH
In short: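 Plates coated with 0.5 μg/ml hRSPO2 or hRSPO3 at pH 9.6 were incubated 2 h at room temperature with antibody (0.078-10 […] dilutions) plus 0.1 μg/ml LGR4-Fc. Bound LGR4-Fc was detected by HRP anti-human Fc and TMB, with absorbance read at 450 nm.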

[2] = molecular target: T2, human RSPO3 with C-terminal HA tag, stably expressed in 293 cells (human, UniProt Q9BXY4 22-272); test: IHC, FFPE 293 cell pellet, RSPO3 Med
T2 construct: Whole open reading frame expressed in HEK-293 cells (high, medium, low); FFPE pellets; also called hRSPO3; RSPO3 Hi
T2 sequence: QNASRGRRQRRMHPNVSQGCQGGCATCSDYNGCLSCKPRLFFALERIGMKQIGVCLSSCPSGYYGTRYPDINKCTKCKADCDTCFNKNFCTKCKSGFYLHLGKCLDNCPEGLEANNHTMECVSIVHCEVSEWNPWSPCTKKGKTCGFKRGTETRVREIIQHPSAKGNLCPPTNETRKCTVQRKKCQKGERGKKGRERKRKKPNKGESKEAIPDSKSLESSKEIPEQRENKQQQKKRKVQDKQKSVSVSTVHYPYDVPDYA

[3] = molecular target: T3, human RSPO1 with C-terminal HA tag, stably expressed in 293 cells (human, UniProt Q2MKA7 21-263); test: IHC, FFPE 293 cell pellet, RSPO1 Hi; - = not significant staining
T3 construct: also called hRSPO1; RSPO1 Hi
T3 sequence (Q2MKA7 other isoform, or with tags, fused parts or gaps limits assumed): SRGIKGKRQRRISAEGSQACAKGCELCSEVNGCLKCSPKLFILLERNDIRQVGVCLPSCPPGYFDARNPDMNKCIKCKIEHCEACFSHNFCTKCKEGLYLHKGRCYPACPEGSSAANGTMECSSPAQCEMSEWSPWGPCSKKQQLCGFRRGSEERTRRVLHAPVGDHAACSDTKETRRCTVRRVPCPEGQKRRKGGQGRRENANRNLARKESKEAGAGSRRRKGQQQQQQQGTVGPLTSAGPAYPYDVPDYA

[4] = molecular target: T4, human RSPO2 with C-terminal HA tag, stably expressed in 293 cells (human, UniProt Q6UXX9 22-243); test: IHC, FFPE 293 cell pellet, RSPO2 Hi; - = not significant staining
T4 construct: Whole open reading frame was expressed from a lentiviral vector in HEK-293 cells sorted for high, medium or low expression; formalin-fixed paraffin-embedded pellets; also called hRSPO2; RSPO2 Hi
T4 sequence (Q6UXX9 other isoform, or with tags, fused parts or gaps): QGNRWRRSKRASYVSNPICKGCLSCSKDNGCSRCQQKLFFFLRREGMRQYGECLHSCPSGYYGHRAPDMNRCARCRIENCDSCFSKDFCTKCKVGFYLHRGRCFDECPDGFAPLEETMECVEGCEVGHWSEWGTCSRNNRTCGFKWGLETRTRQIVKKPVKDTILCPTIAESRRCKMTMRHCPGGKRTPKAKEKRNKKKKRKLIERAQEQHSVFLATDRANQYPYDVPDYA

recombinant human RSPO2 = recombinant human RSPO2 (human, UniProt Q6UXX9 22-243); test: cell-based or functional assay
recombinant human RSPO2, sequence (Q6UXX9 22-243): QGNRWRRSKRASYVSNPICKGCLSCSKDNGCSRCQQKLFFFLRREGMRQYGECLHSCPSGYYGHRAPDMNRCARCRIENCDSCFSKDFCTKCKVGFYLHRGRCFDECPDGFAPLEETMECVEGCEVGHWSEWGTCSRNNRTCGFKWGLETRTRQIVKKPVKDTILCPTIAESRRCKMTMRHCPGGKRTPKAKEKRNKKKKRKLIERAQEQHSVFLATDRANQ

cynomolgus RSPO2 = cynomolgus RSPO2 (cynomolgus, UniProt G7PCH9 22-243); test: cell-based or functional assay
cynomolgus RSPO2, sequence (G7PCH9 entry or part of it): as the sequence (Q6UXX9 22-243) above, with V160A, L165P, T178A counted along it

mouse RSPO3 = molecular target: T5, mouse RSPO3 (mouse, UniProt Q2TJ95 22-277, limits assumed); test: cell-based or functional assay
T5 sequence (looked up): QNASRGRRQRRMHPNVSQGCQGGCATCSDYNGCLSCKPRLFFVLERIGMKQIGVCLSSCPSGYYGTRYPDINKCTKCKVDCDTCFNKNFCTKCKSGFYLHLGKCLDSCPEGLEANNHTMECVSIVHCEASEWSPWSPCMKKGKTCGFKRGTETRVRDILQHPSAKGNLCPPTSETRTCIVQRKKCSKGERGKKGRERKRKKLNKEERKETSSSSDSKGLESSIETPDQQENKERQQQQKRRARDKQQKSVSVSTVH

cynomolgus RSPO3 = molecular target: T6, cynomolgus RSPO3 (cynomolgus, UniProt A0A2K5UTQ7 22-273); test: cell-based or functional assay
T6 sequence: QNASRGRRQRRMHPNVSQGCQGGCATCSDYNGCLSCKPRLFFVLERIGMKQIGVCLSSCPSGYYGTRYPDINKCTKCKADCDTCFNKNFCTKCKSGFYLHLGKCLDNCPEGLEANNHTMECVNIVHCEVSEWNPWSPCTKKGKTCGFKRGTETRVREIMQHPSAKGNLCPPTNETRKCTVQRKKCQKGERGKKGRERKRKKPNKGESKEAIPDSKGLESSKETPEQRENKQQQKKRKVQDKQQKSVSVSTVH

recombinant human RSPO3 = molecular target: T7, recombinant human RSPO3 (human, UniProt Q9BXY4 22-272); test: cell-based or functional assay
T7 sequence: T1 sequence

mouse RSPO2 = mouse RSPO2 (mouse, UniProt Q8BFU0 22-205, limits assumed); test: cell-based or functional assay
mouse RSPO2, sequence (Q8BFU0 22-205 limits assumed): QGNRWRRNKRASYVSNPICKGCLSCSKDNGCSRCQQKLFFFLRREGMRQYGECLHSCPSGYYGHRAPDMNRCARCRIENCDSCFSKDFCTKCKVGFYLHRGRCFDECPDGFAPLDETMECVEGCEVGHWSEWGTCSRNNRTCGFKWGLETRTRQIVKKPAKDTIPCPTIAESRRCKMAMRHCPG

[5] = molecular target: T8, human RSPO4 with C-terminal HA tag, stably expressed in 293 cells (human, UniProt Q2I0M5 20-234); test: IHC, FFPE 293 cell pellet, RSPO4 Hi; - = not significant staining
T8 construct: also called hRSPO4; RSPO4 Hi
T8 sequence (Q2I0M5 other isoform, or with tags, fused parts or gaps limits assumed): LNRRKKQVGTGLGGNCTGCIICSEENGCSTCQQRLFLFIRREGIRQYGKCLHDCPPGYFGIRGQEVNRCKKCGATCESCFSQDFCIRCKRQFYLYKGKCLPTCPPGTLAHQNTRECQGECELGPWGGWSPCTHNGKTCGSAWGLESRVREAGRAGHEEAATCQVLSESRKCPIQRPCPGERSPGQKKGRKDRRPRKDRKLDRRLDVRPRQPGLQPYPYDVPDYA

[6] = molecular target: T1, FLAG-tagged human RSPO3 (Genentech); test: competitive binding ELISA: titrated against biotinylated RNF43-Flag (RNF43-ECD) binding to plate-coated hRSPO3; signal = bound RNF43, normalized OD
[7] = molecular target: T2, human RSPO3 with C-terminal HA tag, …; test: IHC, FFPE 293 cell pellet, RSPO3 Low
[8] = molecular target: T2, human RSPO3 with C-terminal HA tag, …; test: IHC, FFPE 293 cell pellet, RSPO3 Hi

IC50 (read off the curve) [1]: ~0.1 µg/mL
percentage of cells staining [2]: 80%
binding result [3]: no binding
binding result [4]: no binding
IC50, WNT luciferase reporter, bivalent antibody (recombinant human RSPO2): > 500000 pM
IC50, WNT luciferase reporter, bivalent antibody (cynomolgus RSPO2): > 500000 pM
IC50, WNT luciferase reporter, bivalent antibody (mouse RSPO3): 500 pM
IC50, WNT luciferase reporter, bivalent antibody (cynomolgus RSPO3): 310 pM
IC50, WNT luciferase reporter, bivalent antibody (recombinant human RSPO3): 90 pM
IC50, WNT luciferase reporter, bivalent antibody (mouse RSPO2): > 500000 pM
binding result [5]: no binding
IC50 (read off the curve) [6]: ~0.08 µg/mL
percentage of cells staining [7]: 20%
percentage of cells staining [8]: 90%
B1: 5E11 (antibody, V domains shown)
VH: QVQLKQSGPGLVQPSQSLSITCTVSGFSLSSYAVHWVRQSPGEGLEWLGVIWSGGSTDYNAAFISRMSITKDNSKSQVFFKMNSLQADDTAIYFCARNDGYYYFDYWGQGTTLTVSS
VL: DIVMTQSTSSLSASLGDRVTISCRASQDISNYLNWYQQKPDGTVKLLIYYTSRLHSGVPSRFSGSGSGTDYSLTISNLEKEDVATYFCQHGDTLPPTFGGGTKLEIK
notes: also called monoclonal antibody 5E11
